Sequences and labels used below:
B1: Protein piccolo, residues 1058 to 1114; numbered along this chain, Q9Y6V0 (parent)
chain: TCPLCKTELNIGSKDPPNFNTCTECKNQVCNLCGFNPTPHLTEIQEWLCLNCQTQRA

± gives the uncertainty stated by the source.

The data set covers variants of B1. Briefly: abundance fitness (aPCA) (normalised: wild type 0, dead -1); higher = more abundant; growth selection in yeast, the domain comes from the species named. The note with it: Homo sapiens.
For the variant TCPLCATELNIGSKDPPNFNTCTECKNQVCNLCGFNPTPHLTEIQEWLCLNCQTQRA [K6A], the abundance fitness is -0.097 ± 0.085.

On to TCPLCRTELNIGSKDPPNFNTCTECKNQVCNLCGFNPTPHLTEIQEWLCLNCQTQRA [K6R], for which the abundance fitness was -0.283 ± 0.073.

Consider TCPLCTTELNIGSKDPPNFNTCTECKNQVCNLCGFNPTPHLTEIQEWLCLNCQTQRA [K6T], for which the abundance fitness is -0.107 ± 0.097.

Turning to TCPLCHTELNIGSKDPPNFNTCTECKNQVCNLCGFNPTPHLTEIQEWLCLNCQTQRA [K6H], the abundance fitness was -0.142 ± 0.15.

With TCPLCNTELNIGSKDPPNFNTCTECKNQVCNLCGFNPTPHLTEIQEWLCLNCQTQRA [K6N], the abundance fitness stood at 0.071 ± 0.16.

For TCPLCSTELNIGSKDPPNFNTCTECKNQVCNLCGFNPTPHLTEIQEWLCLNCQTQRA [K6S], the abundance fitness is 0.059 ± 0.076.

In the case of TCPLCGTELNIGSKDPPNFNTCTECKNQVCNLCGFNPTPHLTEIQEWLCLNCQTQRA [K6G], the abundance fitness is -0.507 ± 0.074.

TCPLCYTELNIGSKDPPNFNTCTECKNQVCNLCGFNPTPHLTEIQEWLCLNCQTQRA [K6Y]: the abundance fitness was -0.18 ± 0.16.

Take TCPLCETELNIGSKDPPNFNTCTECKNQVCNLCGFNPTPHLTEIQEWLCLNCQTQRA [K6E]: the abundance fitness was -0.069 ± 0.093.

For TCPLCITELNIGSKDPPNFNTCTECKNQVCNLCGFNPTPHLTEIQEWLCLNCQTQRA [K6I], the abundance fitness is -0.087 ± 0.13.

For TCPLCWTELNIGSKDPPNFNTCTECKNQVCNLCGFNPTPHLTEIQEWLCLNCQTQRA [K6W], the abundance fitness was -0.795 ± 0.088.

With TCPLCPTELNIGSKDPPNFNTCTECKNQVCNLCGFNPTPHLTEIQEWLCLNCQTQRA [K6P], the abundance fitness turned out to be 0.104 ± 0.1.

On to TCPLCVTELNIGSKDPPNFNTCTECKNQVCNLCGFNPTPHLTEIQEWLCLNCQTQRA [K6V], for which the abundance fitness is -0.215 ± 0.074.

TCPLCQTELNIGSKDPPNFNTCTECKNQVCNLCGFNPTPHLTEIQEWLCLNCQTQRA [K6Q]: the abundance fitness is -0.02 ± 0.11.

With TCPLCCTELNIGSKDPPNFNTCTECKNQVCNLCGFNPTPHLTEIQEWLCLNCQTQRA [K6C], the abundance fitness was -0.329 ± 0.12.

Consider TCPLSKTELNIGSKDPPNFNTCTECKNQVCNLCGFNPTPHLTEIQEWLCLNCQTQRA [C5S], for which the abundance fitness is -0.68 ± 0.072.

For the variant TCPLAKTELNIGSKDPPNFNTCTECKNQVCNLCGFNPTPHLTEIQEWLCLNCQTQRA [C5A], the abundance fitness was -0.844 ± 0.082.

TCPLKKTELNIGSKDPPNFNTCTECKNQVCNLCGFNPTPHLTEIQEWLCLNCQTQRA [C5K]: the abundance fitness was -0.63 ± 0.18.

With TCPLMKTELNIGSKDPPNFNTCTECKNQVCNLCGFNPTPHLTEIQEWLCLNCQTQRA [C5M], the abundance fitness was -0.927 ± 0.13.

Consider TCPLTKTELNIGSKDPPNFNTCTECKNQVCNLCGFNPTPHLTEIQEWLCLNCQTQRA [C5T], for which the abundance fitness was -0.872 ± 0.082.

For the variant TCPLDKTELNIGSKDPPNFNTCTECKNQVCNLCGFNPTPHLTEIQEWLCLNCQTQRA [C5D], the abundance fitness was -0.606 ± 0.095.

Consider TCPLPKTELNIGSKDPPNFNTCTECKNQVCNLCGFNPTPHLTEIQEWLCLNCQTQRA [C5P], for which the abundance fitness was -1.01 ± 0.089.

In the case of TCPLYKTELNIGSKDPPNFNTCTECKNQVCNLCGFNPTPHLTEIQEWLCLNCQTQRA [C5Y], the abundance fitness was -0.947 ± 0.088.

As for TCPLQKTELNIGSKDPPNFNTCTECKNQVCNLCGFNPTPHLTEIQEWLCLNCQTQRA [C5Q], the abundance fitness is -0.689 ± 0.15.

Take TCPLRKTELNIGSKDPPNFNTCTECKNQVCNLCGFNPTPHLTEIQEWLCLNCQTQRA [C5R]: the abundance fitness was -0.906 ± 0.09.

TCPLEKTELNIGSKDPPNFNTCTECKNQVCNLCGFNPTPHLTEIQEWLCLNCQTQRA [C5E]: the abundance fitness was -0.812 ± 0.16.

TCPLLKTELNIGSKDPPNFNTCTECKNQVCNLCGFNPTPHLTEIQEWLCLNCQTQRA [C5L]: the abundance fitness is -1.17 ± 0.087.

Regarding TCPLHKTELNIGSKDPPNFNTCTECKNQVCNLCGFNPTPHLTEIQEWLCLNCQTQRA [C5H], the abundance fitness was -0.142 ± 0.077.

Regarding TCPLIKTELNIGSKDPPNFNTCTECKNQVCNLCGFNPTPHLTEIQEWLCLNCQTQRA [C5I], the abundance fitness was -1.06 ± 0.092.

Turning to TCPLWKTELNIGSKDPPNFNTCTECKNQVCNLCGFNPTPHLTEIQEWLCLNCQTQRA [C5W], the abundance fitness is -0.96 ± 0.15.

TCPLNKTELNIGSKDPPNFNTCTECKNQVCNLCGFNPTPHLTEIQEWLCLNCQTQRA [C5N]: the abundance fitness is -0.693 ± 0.084.

Turning to TCPLFKTELNIGSKDPPNFNTCTECKNQVCNLCGFNPTPHLTEIQEWLCLNCQTQRA [C5F], the abundance fitness is -1.11 ± 0.091.

For TCPLGKTELNIGSKDPPNFNTCTECKNQVCNLCGFNPTPHLTEIQEWLCLNCQTQRA [C5G], the abundance fitness was -0.685 ± 0.088.

On to TCPLCKFELNIGSKDPPNFNTCTECKNQVCNLCGFNPTPHLTEIQEWLCLNCQTQRA [T7F], for which the abundance fitness is -0.342 ± 0.1.

In the case of TCPLCKKELNIGSKDPPNFNTCTECKNQVCNLCGFNPTPHLTEIQEWLCLNCQTQRA [T7K], the abundance fitness was found to be 0.043 ± 0.12.

On to TCPLCKRELNIGSKDPPNFNTCTECKNQVCNLCGFNPTPHLTEIQEWLCLNCQTQRA [T7R], for which the abundance fitness was -0.056 ± 0.075.

With TCPLCKEELNIGSKDPPNFNTCTECKNQVCNLCGFNPTPHLTEIQEWLCLNCQTQRA [T7E], the abundance fitness is 0.094 ± 0.093.

Consider TCPLCKNELNIGSKDPPNFNTCTECKNQVCNLCGFNPTPHLTEIQEWLCLNCQTQRA [T7N], for which the abundance fitness was -0.007 ± 0.13.

Turning to TCPLCKQELNIGSKDPPNFNTCTECKNQVCNLCGFNPTPHLTEIQEWLCLNCQTQRA [T7Q], the abundance fitness is 0.019 ± 0.17.

For TCPLCKIELNIGSKDPPNFNTCTECKNQVCNLCGFNPTPHLTEIQEWLCLNCQTQRA [T7I], the abundance fitness is -0.31 ± 0.11.

Take TCPLCKAELNIGSKDPPNFNTCTECKNQVCNLCGFNPTPHLTEIQEWLCLNCQTQRA [T7A]: the abundance fitness is -0.063 ± 0.077.

On to TCPLCKSELNIGSKDPPNFNTCTECKNQVCNLCGFNPTPHLTEIQEWLCLNCQTQRA [T7S], for which the abundance fitness is -0.09 ± 0.081.

On to TCPLCKCELNIGSKDPPNFNTCTECKNQVCNLCGFNPTPHLTEIQEWLCLNCQTQRA [T7C], for which the abundance fitness is -0.56 ± 0.1.

Turning to TCPLCKGELNIGSKDPPNFNTCTECKNQVCNLCGFNPTPHLTEIQEWLCLNCQTQRA [T7G], the abundance fitness was -0.011 ± 0.072.

In the case of TCPLCKMELNIGSKDPPNFNTCTECKNQVCNLCGFNPTPHLTEIQEWLCLNCQTQRA [T7M], the abundance fitness was -0.301 ± 0.1.

Take TCPLCKLELNIGSKDPPNFNTCTECKNQVCNLCGFNPTPHLTEIQEWLCLNCQTQRA [T7L]: the abundance fitness is -0.15 ± 0.076.

Turning to TCPLCKHELNIGSKDPPNFNTCTECKNQVCNLCGFNPTPHLTEIQEWLCLNCQTQRA [T7H], the abundance fitness is -0.168 ± 0.14.
